# Measurements as given in the supplement of paper PMC10899765.
# What was measured:
# Details in all cases: 20 nM; 72 h
# MCF10A [1] = assay: one-nucleolus phenotype percent effect (relative to siNT 0% and siNOL11 100%); higher = more cells with one nucleolus (ribosome biogenesis inhibition)
# Method: (§1)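 After 72 h, cells were fixed and stained with Hoechst and anti-fibrillarin, and nucleoli per nucleus were counted with CellProfiler. Values are plate-adjusted percent effect for the one-nucleolus and 5+ nucleoli phenotypes, normalised to siNT (0%) and to the positive controls siNOL11 or siKIF11 (100%), as the mean of biological triplicates. Percent viability is the nuclei count relative to siNT.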
# MCF10A [2] = assay: percent viability (nuclei count relative to siNT); higher = more viable cells
# Method: as §1
# MCF10A [3] = assay: 5+ nucleoli phenotype percent effect (relative to siNT 0% and siKIF11 100%); higher = more cells with five or more nucleoli
# Method: as §1
Sequence,one-nucleolus phenotype percent effect (MCF10A [1]) [%],percent viability (MCF10A [2]) [%],5+ nucleoli phenotype percent effect (MCF10A [3]) [%]
ACAGUAGUCUGCACAUUGGUUA [hsa-miR-199b-3p],-19.3,92,36.1
CGCAGGGGCCGGGUGCUCACCG [hsa-miR-1909-3p],20.6,26.7,13.4
AUUAAGGACAUUUGUGAUUGAU [hsa-miR-4477b],-4.92,37.8,7
UGGCCCAAGACCUCAGACC [hsa-miR-7155-3p],11.3,35.1,18.5
CGGCCCCACGCACCAGGGUAAGA [hsa-miR-874-5p],-19.8,85.9,38.1
CACCCGGCUGUGUGCACAUGUGC [hsa-miR-941],-3.88,56.3,-23.6
AAGGGAAGAUGGUGACCAC [hsa-miR-9500],15.1,26,-15.3
CUCGGGCGGAGGUGGUUGAGUG [hsa-miR-4750-5p],14.8,40.2,-7.37
CACUGCAUUCCUGCUUGGCCCAG [hsa-miR-6807-3p],-9.99,48.2,6.87
CCUGAGACCCUAGUUCCAC [hsa-miR-4329],-7.16,60.7,1.67
AGGCGGGGCGCCGCGGGACCGC [hsa-miR-663a],0.191,62.8,2.91
ACAAAGUGCUUCCCUUUAGAGU [hsa-miR-520h],-15,173,11.9
UUUUCAACUCUAAUGGGAGAGA [hsa-miR-1305],9.11,72.2,-6.71
UGAGGGACCCAGGACAGGAGA [hsa-miR-6875-5p],13.7,29,-0.911
UGAUGGAUAAAAGACUACAUAUU [hsa-miR-3134],23.3,27.6,-19.7
AGACAGUAGUUCUUGCCUGGUU [hsa-miR-4645-3p],18.2,52.7,-25
UAUAUGGACUUUUCUGAUACAAUG [hsa-miR-8076],-22.4,49.4,44.8
UGGCGGGGGUAGAGCUGGCUGC [hsa-miR-6787-5p],30,23.7,-19.2
UCCUGUCCCUGUCUCCUACAG [hsa-miR-6748-3p],-15.9,47,17
CCGCCUGAGCUAGCUGUGG [hsa-miR-6078],-22.1,89.3,38.1

Sequence,one-nucleolus phenotype percent effect (MCF10A [1]) [%],percent viability (MCF10A [2]) [%],5+ nucleoli phenotype percent effect (MCF10A [3]) [%]
ACAUUUUCCAGCCCAUUCA [hsa-miR-1250-3p],53.7,12.3,-18.3
GUGAGGAGGGGCUGGCAGGGAC [hsa-miR-6858-5p],-12.2,84.1,7.04
AUGAGCGACUGUGCCUGACC [hsa-miR-5708],21.4,47.3,-33
UGAGUGUGUGUGUGUGAGUGUGU [hsa-miR-574-5p],3.74,42,-4.79
UCUUCUUCCUUUGCAGAGUUGA [hsa-miR-4778-3p],-1.98,77.1,1.95
AGGCAUGGGAGGUCAGGUGA [hsa-miR-3622b-5p],32.5,16.5,-30.6
CACGGCAAAAGAAACAAUCCA [hsa-miR-4445-3p],-16.4,52.2,25.7
UACGUAGAUAUAUAUGUAUUUU [hsa-miR-1277-3p],-20.9,135,41.8
AGGUUGUCUGUGAUGAGUUCG [hsa-miR-410-5p],-12.5,39.7,75.2
CAUCUUACCGGACAGUGCUGGA [hsa-miR-200a-5p],5.98,56,-26
AAAGUGCUGCGACAUUUGAGCGU [hsa-miR-372],-16.8,64.2,52.4
UGGUUGACCAUAGAACAUGCGC [hsa-miR-380-5p],13.4,17.6,-0.352
CUUUCAGUCAGAUGUUUGCUGC [hsa-miR-30d-3p],-17.5,131,59.2
CUGCCAUGUCUAAGAAGAAAAC [hsa-miR-4659a-5p],-12.3,68.5,-0.515
UCUCUGGUCUUGCCACCCCAG [hsa-miR-6824-3p],16.2,26.4,-18.8
CCUCUAAAGGGAAGCGCUUUCU [hsa-miR-520f-5p],-26.3,119,57.3
GAGGGUCUUGGGAGGGAUGUGAC [hsa-miR-1182],-20.9,104,44.5
UGACUAACUCCCACUCUACAG [hsa-miR-6831-3p],-28.1,41.8,16.8
UGUGACAAUAGAGAUGAACAUG [hsa-miR-4504],30.4,39.9,-15.9
AUCUGACCUGAUGAAGGU [hsa-miR-4256],30.3,11.7,5.64

Sequence,one-nucleolus phenotype percent effect (MCF10A [1]) [%],percent viability (MCF10A [2]) [%],5+ nucleoli phenotype percent effect (MCF10A [3]) [%]
ACCUCCUGUGUGCAUGGAUUA [hsa-miR-660-3p],16.9,37.2,-17.5
AAGUUCUGUUAUACACUCAGGC [hsa-miR-148b-5p],11.3,37.1,-28.2
AGGCCUCUGUGACGUCACGGUGU [hsa-miR-4757-5p],-11.7,62.5,66.8
UCCCUGAGCAAAGCCAC [hsa-miR-4319],-1.9,59.9,9.87
AAAAGUAAUCACUGUUUUUGCC [hsa-miR-548y],-21.4,73.4,42.1
CCUGCAACUUUGCCUGAUCAGA [hsa-miR-4772-3p],-15.1,47.3,16.6
UCGCAGACAGGGACACAUGGAGA [hsa-miR-6767-5p],-5.76,39,0.353
UUAUUGUCACGUUCUGAUU [hsa-miR-5701],4.81,22.2,3.43
UCACAACAACCUUGCAGGGUAGA [hsa-miR-5003-5p],-10.6,80.1,16.9
CAAAAACUGCAAUUACUUUCA [hsa-miR-548ae],-34.4,153,38.6
UCACUGUUCAGACAGGCGGA [hsa-miR-1208],-21.6,112,20.6
CAGGAGUGGGGGGUGGGACGU [hsa-miR-4433b-3p],-5.4,65.1,3.45
AACAUUCAUUGUUGUCGGUGGGU [hsa-miR-181d],-6.07,91.1,12.5
UAUGUAAUAUGGUCCACAUCUU [hsa-miR-380-3p],0.458,90,-13.1
UGCGGCAGAGCUGGGGUCA [hsa-miR-6820-5p],11.9,16.9,3.87
AUCAAGGAUCUUAAACUUUGCC [hsa-miR-561-5p],5.64,38.8,-9.66
UGUGCAAAUCCAUGCAAAACUGA [hsa-miR-19b-3p],4.13,82.4,-2.64
AUAUACAGGGGGAGACUCUUAU [hsa-miR-1185-1-3p],9.76,20.3,-12.6
UAGAGAGGGGAAGGAUGUGAUGU [hsa-miR-6758-5p],12.9,44.4,-13.9
